# Measured values taken from the supplement of paper PMC7125110.
# ± gives the standard error. Fewer inactive variants are shown than the library holds.
# B1: glmS ribozyme (parent)
# chain: AUAAAAGCGCCAGAACUACAGAAAUGUAGUUGACGAGGAGGAGGUUUAUCGAAUUUUCGGCGGAUGCCUCCAAA
# Assays:
# Conditions in all cases: with glucosamine-6-phosphate
# glucosamine-6-phosphate [1] = variants of: B1; experiment: self-cleavage kobs at 40 uM GlcN6P; higher = faster cleavage; RNA array
# Summary of the method: (§1)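 Glucosamine-6-phosphate, from 40 μM to 10 mM in HEPES/KCl/Mg(OAc)2 buffer, was flowed over sequenced MiSeq chips carrying barcoded ribozyme variants transcribed in situ by E. coli RNA polymerase. A hybridised Cy3 probe tracked the variants at 37 °C as tiles were imaged over ~14 h. kobs, kcat and KM were obtained by fitting normalised per-tile medians to exponential decays and then applying weighted Michaelis–Menten fits across concentrations.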
# glucosamine-6-phosphate [2] = variants of: B1; experiment: self-cleavage kobs at 10000 uM GlcN6P; higher = faster cleavage; RNA array
# Summary of the method: as §1
# glucosamine-6-phosphate [3] = variants of: B1; experiment: self-cleavage kobs at 160 uM GlcN6P; higher = faster cleavage; RNA array
# Summary of the method: as §1
# glucosamine-6-phosphate [4] = variants of: B1; experiment: self-cleavage kobs at 640 uM GlcN6P; higher = faster cleavage; RNA array
# Summary of the method: as §1
# glucosamine-6-phosphate [5] = variants of: B1; experiment: self-cleavage kobs at 2500 uM GlcN6P; higher = faster cleavage; RNA array
# Summary of the method: as §1
Variant,self-cleavage kobs at 40 uM GlcN6P (glucosamine-6-phosphate [1]) [s⁻¹],self-cleavage kobs at 10000 uM GlcN6P (glucosamine-6-phosphate [2]) [s⁻¹],self-cleavage kobs at 160 uM GlcN6P (glucosamine-6-phosphate [3]) [s⁻¹],self-cleavage kobs at 640 uM GlcN6P (glucosamine-6-phosphate [4]) [s⁻¹],self-cleavage kobs at 2500 uM GlcN6P (glucosamine-6-phosphate [5]) [s⁻¹]
C8G C58G G60A,< 1e-05,< 1e-05,,,
C8U A14U G29C U46A G51A,< 1e-05,< 1e-05,,,
C8U G29U,< 1e-05,< 1e-05,< 1e-05,< 1e-05,< 1e-05
C8U A14G,< 1e-05,,< 1e-05,,< 1e-05
G9C C10U G44A U54A C71G,< 1e-05,,,,
C8G G37U G41C U56A,< 1e-05,,,,< 1e-05
C8U G44C A52U C61A,< 1e-05,< 1e-05,,,< 1e-05
C8G G32U C34A,< 1e-05,,,,
G9A C16G A52U,< 1e-05,< 1e-05,,,
C8G G60C,< 1e-05,< 1e-05,< 1e-05,,
C8A C11U A15U C50G U56A G63A,5.94e-05 ± 2e-05,0.00011 ± 2.4e-05,,,0.000104 ± 5.1e-05
C8G G43A G59A G60U,< 1e-05,,,,
G9C A12C A14U U49G,< 1e-05,,,,< 1e-05
C8A C11G A12G C68U,< 1e-05,,,,
G9A G62U,< 1e-05,,< 1e-05,,< 1e-05
C8G A39C,< 1e-05,< 1e-05,< 1e-05,< 1e-05,< 1e-05
C8A C50G,5.03e-05 ± 1.7e-05,,0.000112 ± 3.3e-05,0.00101 ± 0.00048,9.84e-05 ± 2.6e-05
C8U G35U A39U G43U,< 1e-05,,,< 1e-05,
C8A G29U C50U G51U C68G,6.11e-05 ± 2.7e-05,,,,
C8G C67A,< 1e-05,< 1e-05,< 1e-05,< 1e-05,< 1e-05
C8G C11G U30C C34G G44U G62A,< 1e-05,< 1e-05,,,
G9C C10A U56A,< 1e-05,,,< 1e-05,< 1e-05
C8G A36G,< 1e-05,< 1e-05,< 1e-05,< 1e-05,
C8G A36C,< 1e-05,,< 1e-05,< 1e-05,< 1e-05
C8G C10G C11U A33G U47C C70A C71A,< 1e-05,,,,
